Results published in PMC4822050, “Hemi-methylated DNA opens a closed conformation of UHRF1 to facilitate its histone recognition” (Nature Communications, 2016).
Where “and” joins values, the source holds several entries; their conditions need not be identical. Equal values may be shown once. Each block holds one binder with its values, some of them ahead of it.

B1: TTD of UHRF1 (residues 134–285) (domain or fragment, human, UniProt Q96T88 134-285, looked up)
chain: LYKVNEYVDARDTNMGAWFEAQVVRVTRKAPSRDEPCSSTSRPALEEDVIYHVKYDDYPENGVVQMNSRDVRARARTIIKWQDLEVGQVVMLNYNPDNPKERGFWYDAEISRKRETRTARELYANVVLGDDSLNDCRIIFVDEVFKIERPGE
notes: 15N- or 13C/15N-labelled for the NMR work; also called tandem Tudor domain; the isolated TTD

Assays:
Conditions in all cases: both partners purified
[1] = target: T1, SRA–Spacer of UHRF1 (residues 414–674) (human, UniProt Q96T88 414-674); assay: ITC; 0.05 mM protein in the cell, 0.5 mM protein or peptide in the syringe, iTC200, 18 °C, 10 mM HEPES pH 8.0, 100 mM NaCl
T1 sequence (looked up): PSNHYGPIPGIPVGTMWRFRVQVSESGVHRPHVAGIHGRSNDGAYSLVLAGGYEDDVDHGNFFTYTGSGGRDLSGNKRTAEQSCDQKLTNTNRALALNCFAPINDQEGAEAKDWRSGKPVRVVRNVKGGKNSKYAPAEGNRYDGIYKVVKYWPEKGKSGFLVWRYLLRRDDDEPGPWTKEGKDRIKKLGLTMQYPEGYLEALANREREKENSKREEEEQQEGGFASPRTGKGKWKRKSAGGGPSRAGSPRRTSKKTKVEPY

[2] = target: T1, SRA–Spacer of UHRF1 (residues 414–674); assay: pull-down; GST pull-down: 15 μg GST-tagged protein with 40 μg recombinant protein in 500 μl 20 mM HEPES-NaOH pH 8.0, 100 mM NaCl, 5% glycerol, 0.1% Triton X-100, 4 °C, glutathione resin, Coomassie staining; some panels with increasing hm-DNA
[3] = target: B1; assay: NMR solution structure; TTD/Spacer (627–674) 1:1.2, PBS, 0.01% NaN3, pH 7.4, 10% D2O, 20 °C
[4] = target: B1; assay: ITC; 0.05 mM protein in the cell, 0.5 mM protein or peptide in the syringe, iTC200, 18 °C, 10 mM HEPES pH 8.0, 100 mM NaCl
[5] = target: T2, TTD–PHD R295D/R296D (human, UniProt Q96T88 134-366, R295D | R296D); assay: as above
T2 sequence (looked up): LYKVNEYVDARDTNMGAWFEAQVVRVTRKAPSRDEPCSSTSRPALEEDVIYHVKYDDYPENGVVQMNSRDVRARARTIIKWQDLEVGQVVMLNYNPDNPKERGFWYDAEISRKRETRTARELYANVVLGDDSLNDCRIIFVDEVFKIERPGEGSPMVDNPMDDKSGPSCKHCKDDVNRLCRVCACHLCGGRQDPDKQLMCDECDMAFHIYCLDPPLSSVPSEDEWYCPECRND

[6] = target: T3, TTD–PHD of UHRF1 (residues 134–366) (human, UniProt Q96T88 134-366); assay: as above
T3 sequence (looked up): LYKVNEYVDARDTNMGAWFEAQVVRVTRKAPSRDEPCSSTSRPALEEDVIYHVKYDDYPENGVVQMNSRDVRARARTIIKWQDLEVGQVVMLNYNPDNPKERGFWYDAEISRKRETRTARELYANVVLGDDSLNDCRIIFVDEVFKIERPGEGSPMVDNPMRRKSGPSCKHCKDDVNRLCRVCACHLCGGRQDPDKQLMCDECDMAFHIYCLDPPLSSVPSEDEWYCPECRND

[7] = target: B1; assay: ITC; competition ITC: protein pre-incubated with the competing peptide or protein (1:2 molar ratio if not specified) for 10 min, then as a3
[8] = target: T4, SRA of UHRF1 (residues 414–617) (human, UniProt Q96T88 414-617); assay: ITC; 0.05 mM protein in the cell, 0.5 mM protein or peptide in the syringe, iTC200, 18 °C, 10 mM HEPES pH 8.0, 100 mM NaCl
T4 construct: human UHRF1, SRA domain, residues 414–617; also called SET-and-RING-associated domain
T4 sequence (looked up): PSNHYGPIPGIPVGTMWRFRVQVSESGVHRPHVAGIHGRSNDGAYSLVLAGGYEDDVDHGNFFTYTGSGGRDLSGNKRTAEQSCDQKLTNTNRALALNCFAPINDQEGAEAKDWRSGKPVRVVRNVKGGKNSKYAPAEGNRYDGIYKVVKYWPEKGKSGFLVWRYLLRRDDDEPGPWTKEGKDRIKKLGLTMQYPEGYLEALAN

Binder: B1
binding result [1]: binds

B2: GST-tagged TTD of UHRF1 (domain or fragment, human, UniProt Q96T88 134-285, looked up)
chain: LYKVNEYVDARDTNMGAWFEAQVVRVTRKAPSRDEPCSSTSRPALEEDVIYHVKYDDYPENGVVQMNSRDVRARARTIIKWQDLEVGQVVMLNYNPDNPKERGFWYDAEISRKRETRTARELYANVVLGDDSLNDCRIIFVDEVFKIERPGE
notes: pGEX-6p-1 derivative vector; also called GST-TTD
binding result [2]: binds

B4: Linker peptide (289–306) (peptide, UniProt Q96T88 289-306, looked up)
peptide: MVDNPMRRKSGPSCKHCK
notes: also called the Linker
Kd [4]: 24 µM

B5: replication focus targeting sequence (RFTS) of DNMT1 (domain or fragment, UniProt P26358 400-533, looked up)
chain: EALPQHKLTCFSVYCKHGHLCPIDTGLIEKNIELFFSGSAKPIYDDDPSLEGGVNGKNLGPINEWWITGFDGGEKALIGFSTSFAEYILMDPSPEYAPIFGLMQEKIYISKIVVEFLQSNSDSTYEDLINKIET
notes: DNMT1, RFTS domain; also called RFTS^DNMT1
Kd [1]: 7.09 µM

B7: Spacer of UHRF1 (residues 587–674) (domain or fragment, human, UniProt Q96T88 587-674, looked up)
chain: PGPWTKEGKDRIKKLGLTMQYPEGYLEALANREREKENSKREEEEQQEGGFASPRTGKGKWKRKSAGGGPSRAGSPRRTSKKTKVEPY
notes: also called the Spacer; Spacer peptide
Kd [5]: 2.69 µM | Kd [6]: 10.7 µM | Kd [4]: 1.48 µM and 1.59 µM | stoichiometry N [4]: 1 | fold decrease in binding affinity in the presence of the Linker [7]: 2 fold

B8: Spacer S639D (domain or fragment, human, UniProt Q96T88 587-674, looked up)
chain: PGPWTKEGKDRIKKLGLTMQYPEGYLEALANREREKENSKREEEEQQEGGFADPRTGKGKWKRKSAGGGPSRAGSPRRTSKKTKVEPY
binding result [4]: binds

B11: Spacer K648D (domain or fragment, human, UniProt Q96T88 587-674, looked up)
chain: PGPWTKEGKDRIKKLGLTMQYPEGYLEALANREREKENSKREEEEQQEGGFASPRTGKGKWDRKSAGGGPSRAGSPRRTSKKTKVEPY
binding result [4]: binds

B13: unmodified peptide of Spacer^642–664 (peptide, UniProt Q96T88 642-664, looked up)
peptide: TGKGKWKRKSAGGGPSRAGSPRR
binding result [4]: binds

B14: Spacer^Δ642–651 (domain or fragment, human, UniProt Q96T88 587-674, looked up)
chain: PGPWTKEGKDRIKKLGLTMQYPEGYLEALANREREKENSKREEEEQQEGGFASPRAGGGPSRAGSPRRTSKKTKVEPY
binding result [4]: binds

B15: Spacer^Δ660–664 (domain or fragment, human, UniProt Q96T88 587-674, looked up)
chain: PGPWTKEGKDRIKKLGLTMQYPEGYLEALANREREKENSKREEEEQQEGGFASPRTGKGKWKRKSAGGGPSRATSKKTKVEPY
binding result [4]: binds

B18: Spacer^Δ650–654 (domain or fragment, human, UniProt Q96T88 587-674, looked up)
chain: PGPWTKEGKDRIKKLGLTMQYPEGYLEALANREREKENSKREEEEQQEGGFASPRTGKGKWKRGPSRAGSPRRTSKKTKVEPY
binding result [4]: binds

B19: Spacer^Δ670–674 (domain or fragment, human, UniProt Q96T88 587-674, looked up)
chain: PGPWTKEGKDRIKKLGLTMQYPEGYLEALANREREKENSKREEEEQQEGGFASPRTGKGKWKRKSAGGGPSRAGSPRRTSKKT
binding result [4]: binds

B21: GST-tagged TTD–PHD of UHRF1 (domain or fragment, human, UniProt Q96T88 134-366, looked up)
chain: LYKVNEYVDARDTNMGAWFEAQVVRVTRKAPSRDEPCSSTSRPALEEDVIYHVKYDDYPENGVVQMNSRDVRARARTIIKWQDLEVGQVVMLNYNPDNPKERGFWYDAEISRKRETRTARELYANVVLGDDSLNDCRIIFVDEVFKIERPGEGSPMVDNPMRRKSGPSCKHCKDDVNRLCRVCACHLCGGRQDPDKQLMCDECDMAFHIYCLDPPLSSVPSEDEWYCPECRND
notes: also called GST-TTD–PHD
binding result [2]: binds

Continued, values first:

binding result [3]: binds
B3: truncated Spacer (residues 627–674) (domain or fragment, human, UniProt Q96T88 627-674, looked up)
chain: REEEEQQEGGFASPRTGKGKWKRKSAGGGPSRAGSPRRTSKKTKVEPY
notes: modified pRSF-Duet-1 vector; unlabelled or 15N-labelled in the NMR samples; residues 643–655 were built in the model

binding result [4]: binds
B6: Spacer^642–674 (domain or fragment, human, UniProt Q96T88 642-674, looked up)
chain: TGKGKWKRKSAGGGPSRAGSPRRTSKKTKVEPY

binding result [4]: binds
B9: Spacer S651D (domain or fragment, human, UniProt Q96T88 587-674, looked up)
chain: PGPWTKEGKDRIKKLGLTMQYPEGYLEALANREREKENSKREEEEQQEGGFASPRTGKGKWKRKDAGGGPSRAGSPRRTSKKTKVEPY

fold decrease in binding affinity against the wild-type Spacer [4]: ~13 fold
B10: Spacer R649A (domain or fragment, human, UniProt Q96T88 587-674, looked up)
chain: PGPWTKEGKDRIKKLGLTMQYPEGYLEALANREREKENSKREEEEQQEGGFASPRTGKGKWKAKSAGGGPSRAGSPRRTSKKTKVEPY

binding result [4]: binds
B12: Spacer S666D (domain or fragment, human, UniProt Q96T88 587-674, looked up)
chain: PGPWTKEGKDRIKKLGLTMQYPEGYLEALANREREKENSKREEEEQQEGGFASPRTGKGKWKRKSAGGGPSRAGSPRRTDKKTKVEPY

binding result [4]: binds
B16: Spacer^Δ655–659 (domain or fragment, human, UniProt Q96T88 587-674, looked up)
chain: PGPWTKEGKDRIKKLGLTMQYPEGYLEALANREREKENSKREEEEQQEGGFASPRTGKGKWKRKSAGGGSPRRTSKKTKVEPY

binding result [4]: binds
B17: Spacer^Δ665–669 (domain or fragment, human, UniProt Q96T88 587-674, looked up)
chain: PGPWTKEGKDRIKKLGLTMQYPEGYLEALANREREKENSKREEEEQQEGGFASPRTGKGKWKRKSAGGGPSRAGSPRRKVEPY

Kd [8]: 26.7 µM
B20: PHD of UHRF1 (residues 307–366) (domain or fragment, human, UniProt Q96T88 307-366, looked up)
chain: DDVNRLCRVCACHLCGGRQDPDKQLMCDECDMAFHIYCLDPPLSSVPSEDEWYCPECRND
notes: human UHRF1, PHD, residues 307–366; also called plant homeodomain; the isolated PHD
